The supplement of paper PMC9112550, “Optimization of the antimicrobial peptide Bac7 by deep mutational scanning” (BMC Biology, 2022)

system: Escherichia coli TOP10; assay: shrunken log2 fold change of peptide-encoding DNA abundance (4.5 h post-induction vs induction); higher = less antimicrobial activity (less host growth inhibition); details: time post-induction: 4.5 h; library: site-saturation at positions 5, 18, 19, 20
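Note: peptides expressed intracellularly from a pBAD plasmid library in pooled LB shake-flask culture, induced with 0.3% L-arabinose, DNA abundance read by NGS, three biological replicates, DESeq2 with apeglm shrinkage.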

Sequence	shrunken log2 fold change
RRIRFRPPRLPRPRPRPYYMPRP	-0.505
RRIRARPPRLPRPRPRPRMRPRP	0.954
RRIRTRPPRLPRPRPRPTSLPRP	-0.123
RRIRTRPPRLPRPRPRPGKMPRP	0.181
RRIRMRPPRLPRPRPRPHYVPRP	-0.0815
RRIRCRPPRLPRPRPRPHTEPRP	-0.273
RRIRMRPPRLPRPRPRPYPFPRP	-0.0613
RRIRHRPPRLPRPRPRPKKRPRP	-0.163
RRIRFRPPRLPRPRPRPGHDPRP	0.062
RRIRRRPPRLPRPRPRPPFDPRP	0.735
RRIRIRPPRLPRPRPRPEYAPRP	-0.0426
RRIRVRPPRLPRPRPRPILIPRP	-0.413
RRIRMRPPRLPRPRPRPNVYPRP	-0.368
RRIRLRPPRLPRPRPRPTYCPRP	-1
RRIRDRPPRLPRPRPRPGIWPRP	0.252
RRIRKRPPRLPRPRPRPYFIPRP	-0.515
RRIRARPPRLPRPRPRPIREPRP	-0.018
RRIRMRPPRLPRPRPRPHPRPRP	1.04
RRIRVRPPRLPRPRPRPHWDPRP	-0.473
RRIRERPPRLPRPRPRPLKAPRP	0.225
RRIRWRPPRLPRPRPRPQFQPRP	-0.523
RRIRRRPPRLPRPRPRPKDCPRP	0.132
RRIRFRPPRLPRPRPRPQVIPRP	-0.364
RRIRERPPRLPRPRPRPNGSPRP	-0.263
RRIRTRPPRLPRPRPRPRIRPRP	0.0303

Sequence	shrunken log2 fold change
RRIRQRPPRLPRPRPRPHMGPRP	-0.512
RRIRLRPPRLPRPRPRPWFPPRP	-0.157
RRIRSRPPRLPRPRPRPKWCPRP	-0.132
RRIRARPPRLPRPRPRPQCDPRP	0.0205
RRIRMRPPRLPRPRPRPNGFPRP	0.207
RRIRDRPPRLPRPRPRPHSRPRP	-0.328
RRIRRRPPRLPRPRPRPRRQPRP	0.554
RRIRYRPPRLPRPRPRPNKHPRP	-0.916
RRIRCRPPRLPRPRPRPFLRPRP	-0.0477
RRIRSRPPRLPRPRPRPMYGPRP	-0.844
RRIRMRPPRLPRPRPRPDATPRP	3.93
RRIRGRPPRLPRPRPRPQRGPRP	0.119
RRIRKRPPRLPRPRPRPLKVPRP	0.237
RRIRSRPPRLPRPRPRPRIDPRP	0.0938
RRIRCRPPRLPRPRPRPCYGPRP	-0.28
RRIRVRPPRLPRPRPRPFWSPRP	0.0887
RRIRTRPPRLPRPRPRPEFQPRP	-0.161
RRIRGRPPRLPRPRPRPHKIPRP	0.11
RRIRFRPPRLPRPRPRPGGPPRP	0.511
RRIRHRPPRLPRPRPRPVFSPRP	0.0833
RRIRKRPPRLPRPRPRPDQEPRP	0.0193
RRIRPRPPRLPRPRPRPFYYPRP	-0.838
RRIRNRPPRLPRPRPRPDHDPRP	-0.224
RRIRDRPPRLPRPRPRPRNWPRP	0.615
RRIRTRPPRLPRPRPRPTPQPRP	0.241

Sequence	shrunken log2 fold change
RRIRSRPPRLPRPRPRPKWMPRP	0.269
RRIRMRPPRLPRPRPRPDNPPRP	0.0534
RRIRPRPPRLPRPRPRPPDCPRP	-0.0878
RRIRLRPPRLPRPRPRPAYPPRP	0.283
RRIRKRPPRLPRPRPRPKCLPRP	0.118
RRIRERPPRLPRPRPRPYGQPRP	-0.315
RRIRRRPPRLPRPRPRPYREPRP	-0.344
RRIRKRPPRLPRPRPRPPMQPRP	0.439
RRIRMRPPRLPRPRPRPWDRPRP	0.158
RRIRRRPPRLPRPRPRPKQYPRP	-0.215
RRIRGRPPRLPRPRPRPSWCPRP	0.013
RRIRERPPRLPRPRPRPHWDPRP	-0.00134
RRIRLRPPRLPRPRPRPEFQPRP	-0.0134
RRIRYRPPRLPRPRPRPEGKPRP	-0.0361
RRIRYRPPRLPRPRPRPIAPPRP	-0.0464
RRIRIRPPRLPRPRPRPGGDPRP	0.0406
RRIRTRPPRLPRPRPRPCEVPRP	0.0427
RRIRWRPPRLPRPRPRPTNVPRP	-0.0165
RRIRKRPPRLPRPRPRPWFRPRP	0.00108
RRIRTRPPRLPRPRPRPMCQPRP	-0.0075
RRIRARPPRLPRPRPRPRTQPRP	0.634
RRIRQRPPRLPRPRPRPSLEPRP	0.0433
RRIRNRPPRLPRPRPRPPQWPRP	0.315
RRIRARPPRLPRPRPRPQMFPRP	-0.046
RRIRLRPPRLPRPRPRPIERPRP	-0.155

Sequence	shrunken log2 fold change
RRIRCRPPRLPRPRPRPEDWPRP	0.595
RRIRGRPPRLPRPRPRPCRDPRP	0.128
RRIRERPPRLPRPRPRPPNAPRP	0.186
RRIRIRPPRLPRPRPRPSIDPRP	-0.342
RRIRIRPPRLPRPRPRPPVMPRP	0.126
RRIRWRPPRLPRPRPRPMDDPRP	-0.172
RRIRQRPPRLPRPRPRPSCMPRP	-0.508
RRIRPRPPRLPRPRPRPVRFPRP	0.28
RRIRSRPPRLPRPRPRPANHPRP	-0.606
RRIRWRPPRLPRPRPRPWNPPRP	-0.219
RRIRLRPPRLPRPRPRPMHMPRP	-0.226
RRIRERPPRLPRPRPRPRHIPRP	-0.643
RRIRERPPRLPRPRPRPETFPRP	-0.0158
RRIRARPPRLPRPRPRPWSMPRP	-0.198
RRIRSRPPRLPRPRPRPNTCPRP	-0.808
RRIRERPPRLPRPRPRPFCRPRP	-0.0911
RRIRMRPPRLPRPRPRPGDLPRP	-0.0671
RRIRCRPPRLPRPRPRPAGAPRP	0.417
RRIRSRPPRLPRPRPRPEVSPRP	0.214
RRIRGRPPRLPRPRPRPYIEPRP	-0.114
RRIRFRPPRLPRPRPRPMFYPRP	-1.51
RRIRNRPPRLPRPRPRPFWHPRP	0.189
RRIRQRPPRLPRPRPRPGDCPRP	-0.0893
RRIRYRPPRLPRPRPRPFKSPRP	-0.0165
RRIRFRPPRLPRPRPRPCNYPRP	-0.72

Sequence	shrunken log2 fold change
RRIRERPPRLPRPRPRPDWSPRP	-0.0645
RRIRPRPPRLPRPRPRPGILPRP	-0.557
RRIRCRPPRLPRPRPRPNKLPRP	-0.283
RRIRNRPPRLPRPRPRPWSGPRP	-0.173
RRIRIRPPRLPRPRPRPEWFPRP	0.00757
RRIRQRPPRLPRPRPRPTKWPRP	0.25
RRIRGRPPRLPRPRPRPINSPRP	0.134
RRIRERPPRLPRPRPRPNPAPRP	0.0424
RRIRDRPPRLPRPRPRPPDWPRP	0.421
RRIRFRPPRLPRPRPRPAHSPRP	-0.156
RRIRCRPPRLPRPRPRPSYFPRP	-0.193
RRIRHRPPRLPRPRPRPSLSPRP	-0.619
RRIRDRPPRLPRPRPRPASDPRP	0.0114
RRIRFRPPRLPRPRPRPSKIPRP	0.903
RRIRRRPPRLPRPRPRPWISPRP	-0.382
RRIRPRPPRLPRPRPRPPAEPRP	0.632
RRIRQRPPRLPRPRPRPVYWPRP	0.0694
RRIRGRPPRLPRPRPRPWVGPRP	0.12
RRIRIRPPRLPRPRPRPWGFPRP	-0.185
RRIRHRPPRLPRPRPRPSFRPRP	-0.15
RRIRKRPPRLPRPRPRPFIGPRP	-0.0147
RRIRLRPPRLPRPRPRPVIKPRP	-0.111
RRIRERPPRLPRPRPRPHSAPRP	-0.179
RRIRLRPPRLPRPRPRPLNHPRP	-0.355
RRIRARPPRLPRPRPRPCICPRP	-0.0352

Sequence	shrunken log2 fold change
RRIRQRPPRLPRPRPRPPAAPRP	0.778
RRIRERPPRLPRPRPRPGEWPRP	0.0118
RRIRRRPPRLPRPRPRPHMSPRP	-0.0996
RRIRPRPPRLPRPRPRPKAQPRP	-0.155
RRIRNRPPRLPRPRPRPWDAPRP	-0.157
RRIRNRPPRLPRPRPRPANLPRP	-0.342
RRIRGRPPRLPRPRPRPENNPRP	0.502
RRIRQRPPRLPRPRPRPLSIPRP	-0.325
RRIRMRPPRLPRPRPRPPIWPRP	0.512
RRIRKRPPRLPRPRPRPCSHPRP	0.0663
RRIRYRPPRLPRPRPRPRHEPRP	-0.802
RRIRFRPPRLPRPRPRPQDHPRP	-0.391
RRIRNRPPRLPRPRPRPGYPPRP	0.0226
RRIRRRPPRLPRPRPRPWCEPRP	-0.0981
RRIRRRPPRLPRPRPRPQKCPRP	-0.288
RRIRCRPPRLPRPRPRPTTPPRP	0.227
RRIRLRPPRLPRPRPRPIKIPRP	0.0507
RRIRGRPPRLPRPRPRPYPPPRP	-0.0824
RRIRNRPPRLPRPRPRPNDMPRP	-0.457
RRIRFRPPRLPRPRPRPNCAPRP	0.154
RRIRRRPPRLPRPRPRPLVMPRP	0.164
RRIRVRPPRLPRPRPRPTRLPRP	0.568
RRIRGRPPRLPRPRPRPLNAPRP	0.908
RRIRPRPPRLPRPRPRPIRNPRP	-0.0919
RRIRNRPPRLPRPRPRPAFNPRP	0.179
